Assay [1] has as its target Fg Bβ chain peptide β1-25 (Homo sapiens, UniProt P02675). To be noted: read-out: KD for interaction with peptide β1-25; 10 nM fluorescein-labeled β1-25, 3 h, room temperature. The procedure:
Fluorescence Polarization—Fluorescence polarization was used to determine the equilibrium dissociation constant (KD) for the interaction of rSdrG(50-597) with peptide β1-25. The peptide was labeled with fluorescein as previously described (18). Increasing concentrations of rSdrG(50-597) in PBS, pH 7.5, were incubated with 10 nM labeled peptide for 3 h in the dark at room temperature. Reactions were allowed to reach equilibrium. Polarization measurements were taken with a Luminescence Spectrometer LS50B (Perkin Elmer) using FL WinLab software (Perkin Elmer). Binding data was analyzed by nonlinear regression used to fit a binding function as defined by the following equation: [formula]

Assay [2] deals with Serine protease-digested Fg. As to the kind of experiment: ELISA with serine protease-treated immobilized Fg. Format: binding, human. To be noted: 30 min at room temperature. The procedure: Fg coated microtiter wells were pretreated for 30 min at room temperature with ancrod (•), PBS (untreated) (▾), thrombin (♦) or contortrixobin (▪). Plates were blocked, washed and incubated with a serine protease inhibitor (1 NIH unit/ml hirudin for thrombin and 100 μg/ml PMSF for ancrod and contortrixobin). Biotin labeled rSdrG(50-597) (25-1000 nM) was incubated in the wells for 1 h at room temperature. Values represent the mean±standard deviation of triplicate wells.
The A[…] chain may interfere with rSdrG(50-597) binding to the Bβ chain and this observation may be due to the absence of FpA, thus making the N-terminus of the Bβ chain more easily accessible.
Background: ELISA stands for enzyme-linked immunosorbent assay.

Another assay addresses T1, immobilized Fg (Homo sapiens, UniProt P02675).
T1 construct: purchased Enzyme Research Labs
T1 sequence (P02675 31-491): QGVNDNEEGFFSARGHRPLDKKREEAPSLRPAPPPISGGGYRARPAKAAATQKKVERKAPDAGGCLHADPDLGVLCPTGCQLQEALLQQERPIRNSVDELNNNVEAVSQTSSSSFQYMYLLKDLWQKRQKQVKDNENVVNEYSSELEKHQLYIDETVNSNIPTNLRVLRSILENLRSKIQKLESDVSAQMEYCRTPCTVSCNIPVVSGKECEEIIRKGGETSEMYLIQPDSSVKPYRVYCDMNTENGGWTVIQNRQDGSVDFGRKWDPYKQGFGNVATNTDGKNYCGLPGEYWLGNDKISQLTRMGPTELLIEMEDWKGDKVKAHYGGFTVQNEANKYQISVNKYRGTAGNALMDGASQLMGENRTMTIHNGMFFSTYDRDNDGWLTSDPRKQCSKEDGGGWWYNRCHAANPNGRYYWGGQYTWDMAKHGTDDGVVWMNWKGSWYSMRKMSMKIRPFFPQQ
T1 sequence (P02671 20-629 partner limits assumed): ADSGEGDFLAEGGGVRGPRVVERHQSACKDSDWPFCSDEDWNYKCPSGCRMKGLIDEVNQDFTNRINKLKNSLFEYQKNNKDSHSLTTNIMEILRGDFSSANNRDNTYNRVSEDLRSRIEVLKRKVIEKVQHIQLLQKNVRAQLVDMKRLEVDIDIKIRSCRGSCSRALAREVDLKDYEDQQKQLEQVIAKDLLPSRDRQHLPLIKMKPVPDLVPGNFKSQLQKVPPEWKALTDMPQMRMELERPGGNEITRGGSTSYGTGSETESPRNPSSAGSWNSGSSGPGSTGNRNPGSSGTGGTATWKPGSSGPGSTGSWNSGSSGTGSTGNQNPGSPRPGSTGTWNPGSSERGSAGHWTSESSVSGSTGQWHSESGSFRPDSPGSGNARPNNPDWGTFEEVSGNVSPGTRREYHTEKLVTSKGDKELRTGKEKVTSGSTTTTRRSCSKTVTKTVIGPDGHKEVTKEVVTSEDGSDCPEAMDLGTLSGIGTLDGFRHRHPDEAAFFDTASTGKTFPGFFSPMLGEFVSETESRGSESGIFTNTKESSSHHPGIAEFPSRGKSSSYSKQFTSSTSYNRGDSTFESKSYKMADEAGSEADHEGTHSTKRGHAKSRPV
T1 sequence (P02679 27-433 partner limits assumed): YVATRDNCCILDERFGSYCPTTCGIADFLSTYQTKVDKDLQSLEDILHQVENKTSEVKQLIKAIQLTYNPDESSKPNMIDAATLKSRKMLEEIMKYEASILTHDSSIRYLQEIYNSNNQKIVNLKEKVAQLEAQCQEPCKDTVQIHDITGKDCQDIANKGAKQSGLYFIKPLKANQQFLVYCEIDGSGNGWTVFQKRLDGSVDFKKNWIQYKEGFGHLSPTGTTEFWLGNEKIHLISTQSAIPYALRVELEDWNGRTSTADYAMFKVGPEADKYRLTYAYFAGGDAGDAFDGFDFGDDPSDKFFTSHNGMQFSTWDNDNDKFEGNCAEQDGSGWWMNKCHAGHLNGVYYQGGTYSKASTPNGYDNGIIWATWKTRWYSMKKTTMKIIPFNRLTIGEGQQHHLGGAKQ
In words: ELISA: rSdrG(50-597) binding to immobilized Fg. As to the method: ELISA—Microtiter plates (Immulon 4, Dynatech Laboratories Inc.) were coated with 1 μg of Fg (Enzyme Research Labs) in PBS, pH 7.5 for 18 h at 4° C. Plates were washed three times with PBS, 0.05% Tween 20 (PBST) and blocked with 1% (w/v) bovine serum albumin (BSA) for 1 h at room temperature. Plates were washed three times with PBST and rSdrG(50-597), diluted into PBS, was added to the wells and the plate was incubated for 1 h at room temperature. Plates were washed three times with PBST and bound rSdrG(50-597) was detected by adding a 1:2000 dilution of an anti-His-tag mAb (Clontech) in PBST, 0.1% BSA. Plates were incubated for 1 h at room temperature and then washed three times with PBST. A 1:2000 dilution of goat anti-mouse alkaline phosphatase (AP)-conjugated polyclonal antibodies (Bio-Rad) in PBST, 0.1% BSA were added to the wells and the plate was incubated for 1 h at room temperature. Plates were washed three times with PBST and developed with p-nitrophenyl phosphate (Sigma) in 1 M diethanolamine, 0.5 mM MgCl2, pH 9.0 at room temperature for ˜30 min. Plates were read at 405 nm using an ELISA plate reader (Thermomax microplate reader, Molecular Devices).

“Also recorded” adds a separate entry of the source.

B1: rSdrG(50-597): recombinant His-tagged A region (residues 50-597) of SdrG, a fibrinogen-binding MSCRAMM from S. epidermidis (protein)
chain: HHHHHHAEENTVQDVKDSNMDDELSDSNDQSSNEEKNDVINNSQSINTDDDNQIKKEETNSNDAIENRSKDITQSTTNVDENEATFLQKTPQDNTQLKEEVVKEPSSVESSNSSMDTAQQPSHTTINSEASIQTSDNEENSRVSDFANSKIIESNTESNKEENTIEQPNKVREDSITSQPSSYKNIDEKISNQDELLNLPINEYENKVRPLSTTSAQPSSKRVTVNQLAAEQGSNVNHLIKVTDQSITEGYDDSDGIIKAHDAENLIYDVTFEVDDKVKSGDTMTVNIDKNTVPSDLTDSFAIPKIKDNSGEIIATGTYDNTNKQITYTFTDYVDKYENIKAHLKLTSYIDKSKVPNNNTKLDVEYKTALSSVNKTITVEYQKPNENRTANLQSMFTNIDTKNHTVEQTIYINPLRYSAKETNVNISGNGDEGSTIIDDSTIIKVYKVGDNQNLPDSNRIYDYSEYEDVTNDDYAQLGNNNDVNINFGNIDSPYIIKVISKYDPNKDDYTTIQQTVTMQTTINEYTGEFRTASYDNTIAFSTSSGQGQGDLPPE
For the molecule B1, in assay [1], the Kd was found to be 140 nM. Besides, in assay [2], the “binding to Fg treated with contortrixobin” value was “could not bind; also recorded: not able to bind” and the “binding to Fg treated with thrombin” value is on record as “could not bind”. Further, the “binding to Fg treated with ancrod” value in assay [2] (versus untreated Fg) was “bind better; also recorded: still able to bind”. The “binding to immobilized Fg” value with immobilized Fg is “bound immobilized Fg”.

Usually Kd stands for the constant that tells how readily two partners part at equilibrium.
